Laboratory results published in article PMC2665295.
Read-outs that look alike come from different tables or passages of the source.

Tests used:
[1] = biological target: rat αCaMKII (Ca2+/calmodulin-dependent protein kinase II, α subunit) (rat) (UniProt P11275); assay: ITC
[2] = biological target: rat αCaMKII (Ca2+/calmodulin-dependent protein kinase II, α subunit) (rat) (UniProt P11275); assay: ITC; remark: listed apart in the source
[3] = biological target: rat αCaMKII (Ca2+/calmodulin-dependent protein kinase II, α subunit) (rat) (UniProt P11275); assay: ITC; remark: listed apart in the source
[4] = biological target: rat αCaMKII (Ca2+/calmodulin-dependent protein kinase II, α subunit) (rat) (UniProt P11275); assay: ITC; remark: listed apart in the source
[5] = biological target: rat αCaMKII (Ca2+/calmodulin-dependent protein kinase II, α subunit) (rat) (UniProt P11275)

rat αCaMKII (Ca2+/calmodulin-dependent protein kinase II, α subunit) (rat), sequence (P11275 whole entry): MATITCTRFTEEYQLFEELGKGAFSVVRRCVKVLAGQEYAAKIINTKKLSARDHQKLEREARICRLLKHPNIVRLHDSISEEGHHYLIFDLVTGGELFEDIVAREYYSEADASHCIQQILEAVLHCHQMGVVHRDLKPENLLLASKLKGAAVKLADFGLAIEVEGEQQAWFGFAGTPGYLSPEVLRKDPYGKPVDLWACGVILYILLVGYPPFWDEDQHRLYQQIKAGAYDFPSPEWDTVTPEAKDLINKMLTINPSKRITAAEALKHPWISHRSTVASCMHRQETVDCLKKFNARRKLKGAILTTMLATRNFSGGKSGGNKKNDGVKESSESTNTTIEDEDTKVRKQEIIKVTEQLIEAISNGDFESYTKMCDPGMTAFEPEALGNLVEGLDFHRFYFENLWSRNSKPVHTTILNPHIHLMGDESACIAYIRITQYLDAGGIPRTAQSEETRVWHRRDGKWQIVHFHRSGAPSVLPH

With “wild-type calmodulin (from UniProt P0DP23 1-149) (natural protein; other documents disagree on this pair)” the Kd [1] was 1900 nM, the dH [1] was 1.7 kcal/mol and the stoichiometry N [1] was 0.823. It also gave a dH [2] of -11.1 kcal/mol, a stoichiometry N [2] of 1.08 and a Kd [3] of 1320 nM. The dH [3] was -12.8 kcal/mol and the stoichiometry N [3] was 0.83.
“CaMNN, a chimeric molecule composed of two N-lobes of CaM” gave a Kd1 (binding mode 1) [4] of 18 nM, a Kd2 (binding mode 2) [4] of 360 nM and an N1 (binding mode 1) [4] of 0.36. For the same substance, the N2 (binding mode 2) [4] was 0.61, the dH1 (binding mode 1) [4] was -6.3 kcal/mol and the dH2 (binding mode 2) [4] was -14.7 kcal/mol. It also gave a Kd1 (binding mode 1) [3] of 0.064 µM, a Kd2 (binding mode 2) [3] of 0.34 µM and an N1 (binding mode 1) [3] of 0.26. For the same substance, the N2 (binding mode 2) [3] was 0.62, the dH1 (binding mode 1) [3] was 0.7 kcal/mol and the dH2 (binding mode 2) [3] was -18.1 kcal/mol.
“CaMCC, a chimeric molecule composed of two C-lobes of CaM” gave a Kd [4] of 360 nM, a dH [4] of -7.3 kcal/mol and a stoichiometry N [4] of 0.979. It also gave an activation of CaMKII (phosphorylation of syntide), K0.5 [5] of 1.4 µM, a Kd [3] of 370 nM and a dH [3] of -6.5 kcal/mol. The stoichiometry N [3] was 0.84.
